Read-outs that look alike come from different tables or passages of the source.
Legend:
[1] = target: membrane truncated soluble E2 (sE2, residues 384-645) of the H77 isolate (hepatitis C virus, isolate H77, genotype 1a) (UniProt P27958); assay: SPR
[2] = target: AR3A full-length IgG (reference); assay: ELISA; details: IgG at its EC50; normalized using the signal of HCV1 at EC50
AR2A = assay: ELISA; details: IgG at its EC50; normalized using the signal of HCV1 at EC50
[3] = target: membrane truncated soluble E2 (sE2, residues 384-645) of the H77 isolate (Hepatitis C virus genotype 1a, isolate H77) (UniProt P27958); assay: SPR

Row | Substance | percent of parent [2] [% WT] | percent of parent (AR2A) [% WT] | further results
1 | Fab A2_11 (group II) (from UniProt P01857) |  |  | Kd ([1]; Fab): 0.66 nM; koff ([1]; Fab): 4.41e-05 s⁻¹
2 | detergent-extracted full-length E1/E2 of HCV isolate H77 (genotype 1a) (from UniProt P27958) G436A | 22 | 123 | 
3 | detergent-extracted full-length E1/E2 of HCV isolate H77 (genotype 1a) (from UniProt P27958) L438A | 4 | 88 | 
4 | detergent-extracted full-length E1/E2 of HCV isolate H77 (genotype 1a) (from UniProt P27958) T425A | 6 | 77 | 
5 | detergent-extracted full-length E1/E2 of HCV isolate H77 (genotype 1a) (from UniProt P27958) L441A | 5 | 85 | 
6 | detergent-extracted full-length E1/E2 of HCV isolate H77 (genotype 1a) (from UniProt P27958) N428A | 6 | 70 | 
7 | detergent-extracted full-length E1/E2 of HCV isolate H77 (genotype 1a) (from UniProt P27958) K628A | 63 | 24 | 
8 | AR3A Fab (reference) |  |  | Kd [3]: 10 nM
9 | detergent-extracted full-length E1/E2 of HCV isolate H77 (genotype 1a) (from UniProt P27958) R630A | 84 | 43 | 
10 | detergent-extracted full-length E1/E2 of HCV isolate H77 (genotype 1a) (from UniProt P27958) F442A | 2 | 71 | 
11 | detergent-extracted full-length E1/E2 of HCV isolate H77 (genotype 1a) (from UniProt P27958) G440A | 10 | 79 | 
12 | detergent-extracted full-length E1/E2 of HCV isolate H77 (genotype 1a) (from UniProt P27958) T625A | 12 | 28 | 
13 | detergent-extracted full-length E1/E2 of HCV isolate H77 (genotype 1a) (from UniProt P27958) Y485A | 76 | 94 | 
14 | detergent-extracted full-length E1/E2 of HCV isolate H77 (genotype 1a) (from UniProt P27958) F627A | 68 | 38 | 
15 | Fab B1_9 (group II) (from UniProt P01857) |  |  | Kd ([1]; Fab): 2.62 nM; koff ([1]; Fab): 0.000299 s⁻¹
16 | A3_9 full-length IgG1 (from UniProt P01857) |  |  | Kd [1]: 0.0448 nM; koff [1]: 1.02e-05 s⁻¹
17 | detergent-extracted full-length E1/E2 of HCV isolate H77 (genotype 1a) (from UniProt P27958) C429A | 3 | 43 | 
18 | Fab #2 (group I) (from UniProt P01857) |  |  | Kd ([1]; Fab): 0.19 nM; koff ([1]; Fab): 2.08e-05 s⁻¹
19 | detergent-extracted full-length E1/E2 of HCV isolate H77 (genotype 1a) (from UniProt P27958) L427A | 7 | 67 | 
20 | Fab A3_9 (from UniProt P01857) |  |  | Kd ([1]; Fab): 1.6 nM; koff ([1]; Fab): 0.000119 s⁻¹
21 | Fab A8_9 (group III) (from UniProt P01857) |  |  | Kd ([1]; Fab): 4.02 nM; koff ([1]; Fab): 0.000299 s⁻¹
22 | Fab B1_11 (group I) (from UniProt P01857) |  |  | Kd ([1]; Fab): 0.485 nM; koff ([1]; Fab): 3.33e-05 s⁻¹
23 | detergent-extracted full-length E1/E2 of HCV isolate H77 (genotype 1a) (from UniProt P27958) W437A | 4 | 98 | 
